Laboratory results reported in paper PMC10812545, “The Binding of HSPA8 and Mitochondrial ALDH2 Mediates Oxygen-Glucose Deprivation-Induced Fibroblast Senescence” (Antioxidants, 2023).
Values joined by “and” are separate entries in the source; they are usually repeats but may differ in a detail not shown here. Equal entries are not always repeated.

Molecular target: the molecule itself
Test: cross-linking; DSS 500 μM, 30 min at room temperature, quenched with 10 mM Tris; NIH3T3 cells (CON, OGD, siHSPA8); Western blot for ALDH2

B1: Aldehyde dehydrogenase 2 (ALDH2) (enzyme, mouse (endogenous in NIH3T3), UniProt P47738 20-519, looked up)
chain: SAAATSAVPAPNHQPEVFCNQIFINNEWHDAVSRKTFPTVNPSTGEVICQVAEGNKEDVDKAVKAARAAFQLGSPWRRMDASDRGRLLYRLADLIERDRTYLAALETLDNGKPYVISYLVDLDMVLKCLRYYAGWADKYHGKTIPIDGDFFSYTRHEPVGVCGQIIPWNFPLLMQAWKLGPALATGNVVVMKVAEQTPLTALYVANLIKEAGFPPGVVNIVPGFGPTAGAAIASHEGVDKVAFTGSTEVGHLIQVAAGSSNLKRVTLELGGKSPNIIMSDADMDWAVEQAHFALFFNQGQCCCAGSRTFVQENVYDEFVERSVARAKSRVVGNPFDSRTEQGPQVDETQFKKILGYIKSGQQEGAKLLCGGGAAADRGYFIQPTVFGDVKDGMTIAKEEIFGPVMQILKFKTIEEVVGRANDSKYGLAAAVFTKDLDKANYLSQALQAGTVWINCYDVFGAQSPFGGYKMSGSGRELGEYGLQAYTEVKTVTVKVPQKNS
notes: Aldehyde dehydrogenase 2, mitochondrial, endogenous in the mouse fibroblast line NIH3T3; Seen as dimer and tetramer after DSS cross-linking; also called mitochondrial ALDH2; mitochondrial aldehyde dehydrogenase; source: endogenous, NIH3T3 lysate
  stoichiometry N: 2 and 4
